In publication PMC10233381:

Target: Myc-PUM1-R1147W (human) (UniProt Q14671)
Experiment: co-IP; HEK293T co-transfected with Myc-PUM1 (WT or mutant) and a GST-tagged protein (250 ng each), 48 h; IP with anti-Myc, immunoblot with anti-GST; quantified against Myc-PUM1-WT; called in vitro by the paper

UniProt Q14671, sequence (Q14671 other isoform, or with tags, fused parts or gaps R1147W): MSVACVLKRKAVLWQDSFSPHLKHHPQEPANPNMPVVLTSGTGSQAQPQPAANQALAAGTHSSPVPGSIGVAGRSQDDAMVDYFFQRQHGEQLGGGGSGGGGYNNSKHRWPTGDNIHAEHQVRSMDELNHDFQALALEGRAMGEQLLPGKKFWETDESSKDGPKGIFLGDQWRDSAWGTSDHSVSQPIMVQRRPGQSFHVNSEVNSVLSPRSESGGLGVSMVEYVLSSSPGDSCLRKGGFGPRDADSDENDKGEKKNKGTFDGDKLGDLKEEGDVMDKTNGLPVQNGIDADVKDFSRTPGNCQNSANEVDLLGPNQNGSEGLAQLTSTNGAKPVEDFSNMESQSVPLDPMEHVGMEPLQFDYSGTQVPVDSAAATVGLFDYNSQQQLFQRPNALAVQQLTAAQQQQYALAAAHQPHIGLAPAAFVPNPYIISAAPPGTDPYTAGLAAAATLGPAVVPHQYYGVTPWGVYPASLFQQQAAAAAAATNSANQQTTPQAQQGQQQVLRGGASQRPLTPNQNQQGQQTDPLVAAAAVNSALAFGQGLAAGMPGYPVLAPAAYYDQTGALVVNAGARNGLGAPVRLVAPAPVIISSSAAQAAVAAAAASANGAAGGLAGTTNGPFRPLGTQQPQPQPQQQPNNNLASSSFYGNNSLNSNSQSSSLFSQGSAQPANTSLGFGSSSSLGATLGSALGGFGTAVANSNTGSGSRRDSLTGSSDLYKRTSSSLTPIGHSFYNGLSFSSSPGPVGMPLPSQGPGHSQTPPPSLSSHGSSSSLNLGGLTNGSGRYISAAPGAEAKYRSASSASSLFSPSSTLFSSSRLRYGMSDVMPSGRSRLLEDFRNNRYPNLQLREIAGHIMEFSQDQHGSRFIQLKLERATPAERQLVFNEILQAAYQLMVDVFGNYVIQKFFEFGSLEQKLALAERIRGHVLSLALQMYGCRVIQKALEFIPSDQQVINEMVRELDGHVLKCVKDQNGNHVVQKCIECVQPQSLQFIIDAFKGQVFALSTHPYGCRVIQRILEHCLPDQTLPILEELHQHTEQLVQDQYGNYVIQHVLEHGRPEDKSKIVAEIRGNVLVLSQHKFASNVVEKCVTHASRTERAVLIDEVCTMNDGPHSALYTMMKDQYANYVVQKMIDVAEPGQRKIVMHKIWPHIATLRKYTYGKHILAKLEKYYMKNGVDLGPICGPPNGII

- percent by which the interaction was diminished: 35%
Substance: GST-CNOT1 (from UniProt A5YKK6 1-2376) (natural protein)
